This is an account of results in US6015560.

The target of test [1] is integrin complement receptor 3 (CR3) on human leukocytes (human) (UniProt P11215).
Test [2] has the same target. This is another data set of the same source.
Test [3] shares this target. The source holds these as a separate data set.
For test [4] the target is unchanged. Put plainly: competition: 125I-Factor X binding to fMLP-stimulated human neutrophils.
The target is the same in test [5]. This is another data set of the same source.
Test [6] has the same target. This is another data set of the same source.
The target is the same in test [7]. Put plainly: macrophages spread on antibody-coated wells; residual CD11b/CD18 detected with C3bi-coated erythrocytes.

Where two headings read alike, the source gives them in different places.

The term IC50 denotes the concentration that gives 50% inhibition. Higher therefore signals lower potency. The substance “Filamentous hemagglutinin (FHA) of Bordetella pertussis, native purified protein (from UniProt P12255) (ligand)” gave a % Inhibition of TEM (transendothelial migration of neutrophils) in test [1] of 82%. The substance further came in with a % inhibition of 125I-Factor X binding in test [2] of 70%. This substance displayed a concentration at which inhibition of neutrophil adherence was lost in test [3] of 0.001 µM. Further, the IC50 in test [4] worked out at 100 nM.

With mAb IB4 against CD18 (antibody), the inhibition of neutrophil adherence to TNF-stimulated HUVEC in test [5] is 38%. This substance also had an inhibition of transendothelial migration of neutrophils in test [6] of 73%. The % inhibition of 125I-Factor X binding in test [4] was 53%. In test [7], this substance returned a % reduction of the binding of C3bi-coated erythrocytes to macrophages of 67%.

With “mAb W6/32 against HLA class I antigen (antibody)”, the inhibition of transendothelial migration of neutrophils in test [6] was 6%.
